Legend:
[1] = biological target: GST-tagged histone H4 tail (UniProt P02309); test: pull-down; GST-H3 tail or GST-H4 tail immobilised on glutathione beads; in vitro translated [35S]-Gro variants; overnight at 4°C in HEMNK buffer (40 mM HEPES pH 7.5, 5 mM MgCl2, 0.2 mM EDTA, 1 mM DTT, 0.5% NP-40, 0.1 M KCl); autoradiography
[2] = biological target: GST-tagged histone H3 tail (UniProt P61830); test: as above

fold reduction of binding against Gro^WT [1]: > 4 fold | fold reduction of binding against Gro^WT [2]: > 4 fold
Substance: Gro^ΔCR, Gro deletion variant lacking the entire central region (GP, CcN and SP domains), untagged (from UniProt P16371 1-730) (natural protein)

Source: article PMC3272004
